Source: patent publication US20180258181A1
Where a chain is given by its changes, count along the chain named.

B1: MOR06626 IgG (antibody, V domains shown)
VH: QVQLVQSGAEVKKPGASVKVSCKASGYTFTGNYINWVRQAPGQGLEWMGIINPTKGWTLYAQKFQGRVTMTRDTSISTAYMELSSLRSEDTAVYYCARWHHGTWIFDYWGQGTLVTVSS
VL: DIVLTQPPSVSGAPGQRVTISCSGSSSNIGSNYVSWYQQLPGTAPKLLIYNDNQRPSGVPDRFSGSKSGTSASLAITGLQSEDEADYYCSTYDRRTFSVFGGGTKLTVLG
B2: MOR06638 IgG (antibody, V domains shown)
VH: B1 VH with T54H, K55G, W57D, L59K
VL: DIVLTQPPSVSGAPGQRVTISCSGSSSNIGSNYVSWYQQLPGTAPKLLIYNDNQRPSGVPDRFSGSKSGTSASLAITGLQSEDEADYYCSSWDRADGSYVFGGGTKLTVLG
B3: MOR06631 IgG (antibody, V domains shown)
VH: QVQLVQSGAEVKKPGESLKISCKGSGYSFTNYWIGWVRQMPGKGLEWMGFIWPVDSWTQYSPSFQGQVTISADKSISTAYLQWSSLKASDTAMYYCARYGHGMYGGALDVWGQGTLVTVSS
VL: DIVLTQSPATLSLSPGERATLSCRASQSVRSSRLAWYQQKPGQAPRLLIYGASKRATGVPARFSGSGSGTDFTLTISSLEPEDFATYYCQQYYDFPPTFGQGTKVEIKR
B4: MOR06669 IgG (antibody, V domains shown)
VH: B3 VH with F50I, V54I, W57F
VL: B3 VL
B5: MOR07111 IgG (antibody, V domains shown)
VH: B3 VH with F50V, W52M, V54S, W57Y, Q59R
VL: B3 VL with T86V, Y92F, D94S, F95K, P97I
B6: MOR06657 IgG (antibody, V domains shown)
VH: QVQLVQSGAEVKKPGSSVKVSCKASGGTFSSYYFSWVRQAPGQGLEWMGGIIPKFGSANYAQKFQGRVTITADESTSTAYMELSSLRSEDTAVYYCARRTSMDYWGQGTLVTVSS
VL: DIALTQPASVSGSPGQSITISCTGTSSDVGGYNYVSWYQQHPGKAPKLMIYSVSKRPSGVSNRFSGSKSGNTASLTISGLQAEDEADYYCATWDHSQMGKVFGGGTKLTVLG

What was measured:
[1] = biological target: mesothelin on OVCAR-3 cells (UniProt Q13421); assay: FACS titration, EC50 on OVCAR-3 against EC50 on NCI-H226
[2] = biological target: mesothelin on OVCAR-3 cells (UniProt Q13421); assay: FACS titration, IgG on OVCAR-3 cells

| Binder | x-fold different EC50 on OVCAR-3 vs. NCI-H226 [1] [fold] | EC50 [2] [nM] |
| --- | --- | --- |
| B1 | 22 | 9.68 |
| B2 | 22.1 |  |
| B3 | 0.5 |  |
| B4 | 3.4 |  |
| B5 | 1.7 |  |
| B6 | 14 | 0.53 |
